Here are results for four molecules from publication PMC4243247 (Nature Communications, 2014).

Test [1] addresses T1, N-terminally TAMRA-labelled ubiquitin (UniProt P0CG48 1-76, TAMRA on the N-terminus).
T1 construct: ubiquitin, the cut product of the ubiquitin precursors; also called TAMRAUb; TAMRA-Ubiquitin
Nature of the test: fluorescence polarisation; stopped-flow, association: equal volumes of USP4 (100–1,000 nM) and TAMRA-ubiquitin rapidly mixed; 20 °C; 20 mM HEPES pH 7.5, 150 mM NaCl, 5 mM DTT, 0.05% Tween 20; single exponential, kon as slope of Kobs against USP4 concentration. Particulars: both partners purified. Background: In fluorescence polarisation assays a small probe gives low polarisation when free and higher when bound to something large.

Test [2] deals with T1, N-terminally TAMRA-labelled ubiquitin. Put plainly: fluorescence polarisation; stopped-flow, dissociation: USP4 constructs (12.5–250 nM) incubated with 2.5 nM TAMRA-ubiquitin 10–30 min, mixed with equal volume of 2.5 μM non-labelled ubiquitin; 20 °C; 20 mM HEPES pH 7.5, 150 mM NaCl, 5 mM DTT, 0.05% Tween 20; global fit to a two-phase decay (k_slow, k_fast). Particulars: both partners purified.

Test [3] shares this target. Put plainly: fluorescence polarisation; equilibrium: different concentrations of USP4 with 2.5 nM TAMRA-ubiquitin; same setup as the Ub–Rhod assays (25 °C, 20 mM HEPES pH 7.5, 150 mM NaCl, 5 mM DTT, 0.05% Tween 20); one-site binding model accounting for ligand depletion. To be noted: both partners purified.
Test [4] addresses T2, USP4 catalytic domain (USP4 CD, residues 296–925) (human, UniProt Q13107 296-925).
T2 sequence (looked up): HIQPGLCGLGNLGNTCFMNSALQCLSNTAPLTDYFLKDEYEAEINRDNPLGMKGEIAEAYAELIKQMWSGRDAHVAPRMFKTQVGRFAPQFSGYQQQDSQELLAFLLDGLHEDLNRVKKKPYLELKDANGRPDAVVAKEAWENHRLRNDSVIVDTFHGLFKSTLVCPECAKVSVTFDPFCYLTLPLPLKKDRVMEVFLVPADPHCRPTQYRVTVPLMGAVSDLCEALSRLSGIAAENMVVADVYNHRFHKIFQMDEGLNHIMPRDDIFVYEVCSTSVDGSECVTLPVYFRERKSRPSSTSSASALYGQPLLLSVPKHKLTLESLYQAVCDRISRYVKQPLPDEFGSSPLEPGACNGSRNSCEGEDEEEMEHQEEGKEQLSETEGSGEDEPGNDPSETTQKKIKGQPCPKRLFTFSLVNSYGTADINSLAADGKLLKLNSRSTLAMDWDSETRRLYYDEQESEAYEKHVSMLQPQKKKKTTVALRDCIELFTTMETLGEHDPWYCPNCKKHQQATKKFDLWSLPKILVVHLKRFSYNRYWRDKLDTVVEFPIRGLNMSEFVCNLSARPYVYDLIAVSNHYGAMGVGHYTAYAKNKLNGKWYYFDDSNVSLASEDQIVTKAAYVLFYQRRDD
Nature of the test: cell-based or functional assay.

In test [5] the target is T3, USP4 insert (residues 483–765), biotinylated on lysines (human, UniProt Q13107 483-765, biotin on lysines (half molar amounts of EZ-Link Sulfo-NHS-LC-LC-biotin)).
T3 construct: USP4, human, the domain inserted within the catalytic core (carries a Ubl domain), residues 483-765; source: E. coli BL21(DE3), purified, then biotinylated
T3 sequence (looked up): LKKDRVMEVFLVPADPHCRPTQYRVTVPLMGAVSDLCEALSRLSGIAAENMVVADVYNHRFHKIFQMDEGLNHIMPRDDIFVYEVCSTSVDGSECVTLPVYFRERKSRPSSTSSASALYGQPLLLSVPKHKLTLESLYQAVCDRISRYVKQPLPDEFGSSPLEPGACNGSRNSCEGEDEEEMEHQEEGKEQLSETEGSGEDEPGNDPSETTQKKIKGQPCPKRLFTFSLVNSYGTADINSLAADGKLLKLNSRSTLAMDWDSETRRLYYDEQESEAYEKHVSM
Nature of the test: SPR; Biacore T100, 25 °C; ~100 RU of biotinylated USP4 construct on SA chip; DUSP–Ubl concentration series flowed at 30 μl/min in 20 mM HEPES pH 7.5, 150 mM NaCl, 5 mM DTT, 0.05% Tween 20 with NSB reducer; apparent KD from EvilFit after removing the slow nonspecific off-rate component. Particulars: both partners purified. In general terms: In SPR one partner is held on a chip, and binding of the other changes the refractive index at the surface.

Test [6] has as its target T4, USP4 CD (residues 296–925), biotinylated on lysines (human, UniProt Q13107 296-925, biotin on lysines (half molar amounts of EZ-Link Sulfo-NHS-LC-LC-biotin)).
T4 construct: USP4, human, catalytic domain with the insert, residues 296-925; same construct as m2, biotinylated for capture on the SA sensor chip; also called immobilized USP4 CD; biotinylated USP4; source: E. coli BL21(DE3), purified, then biotinylated
T4 sequence (looked up): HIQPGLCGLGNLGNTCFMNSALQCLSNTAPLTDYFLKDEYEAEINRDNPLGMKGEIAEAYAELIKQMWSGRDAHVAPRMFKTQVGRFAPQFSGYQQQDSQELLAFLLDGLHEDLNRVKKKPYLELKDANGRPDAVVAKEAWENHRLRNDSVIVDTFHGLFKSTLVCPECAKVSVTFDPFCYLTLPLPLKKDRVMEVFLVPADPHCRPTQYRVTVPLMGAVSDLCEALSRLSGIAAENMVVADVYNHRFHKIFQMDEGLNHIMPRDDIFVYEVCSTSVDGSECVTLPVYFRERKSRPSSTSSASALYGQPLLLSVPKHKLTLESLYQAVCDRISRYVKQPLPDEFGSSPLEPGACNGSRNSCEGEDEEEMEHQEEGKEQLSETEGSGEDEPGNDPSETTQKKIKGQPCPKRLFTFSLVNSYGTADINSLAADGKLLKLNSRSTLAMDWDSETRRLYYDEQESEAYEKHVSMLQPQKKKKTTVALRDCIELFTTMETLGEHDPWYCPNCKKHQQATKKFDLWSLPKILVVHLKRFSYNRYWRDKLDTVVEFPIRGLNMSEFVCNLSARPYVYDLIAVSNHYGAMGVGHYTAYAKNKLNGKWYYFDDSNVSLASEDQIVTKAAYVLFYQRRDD
The description is as above. Particulars: both partners purified.

B1: USP4 CD F386G (domain or fragment, human, UniProt Q13107 296-925, looked up)
chain: HIQPGLCGLGNLGNTCFMNSALQCLSNTAPLTDYFLKDEYEAEINRDNPLGMKGEIAEAYAELIKQMWSGRDAHVAPRMFKTQVGRFAPQGSGYQQQDSQELLAFLLDGLHEDLNRVKKKPYLELKDANGRPDAVVAKEAWENHRLRNDSVIVDTFHGLFKSTLVCPECAKVSVTFDPFCYLTLPLPLKKDRVMEVFLVPADPHCRPTQYRVTVPLMGAVSDLCEALSRLSGIAAENMVVADVYNHRFHKIFQMDEGLNHIMPRDDIFVYEVCSTSVDGSECVTLPVYFRERKSRPSSTSSASALYGQPLLLSVPKHKLTLESLYQAVCDRISRYVKQPLPDEFGSSPLEPGACNGSRNSCEGEDEEEMEHQEEGKEQLSETEGSGEDEPGNDPSETTQKKIKGQPCPKRLFTFSLVNSYGTADINSLAADGKLLKLNSRSTLAMDWDSETRRLYYDEQESEAYEKHVSMLQPQKKKKTTVALRDCIELFTTMETLGEHDPWYCPNCKKHQQATKKFDLWSLPKILVVHLKRFSYNRYWRDKLDTVVEFPIRGLNMSEFVCNLSARPYVYDLIAVSNHYGAMGVGHYTAYAKNKLNGKWYYFDDSNVSLASEDQIVTKAAYVLFYQRRDD
notes: USP4, human, catalytic domain residues 296-925, switching loop mutant F386G; made with the QuickChange mutagenesis kit
B1 returned a kon in test [1] of 35000 ± 7000 M⁻¹ s⁻¹. In test [2], the “k_fast (dissociation, fast component)” value amounted to 0.12 ± 0.016 s⁻¹ and the “k_slow (dissociation, slow component)” value worked out at 0.015 ± 0.0006 s⁻¹. The Kd in test [3] is approximately 1 µM.

B2: USP4 DUSP–Ubl domain (residues 8–228) (domain or fragment, human, UniProt Q13107 8-228, looked up)
chain: RERPDAETQKSELGPLMRTTLQRGAQWYLIDSRWFKQWKKYVGFDSWDMYNVGEHNLFPGPIDNSGLFSDPESQTLKEHLIDELDYVLVPTEAWNKLLNWYGCVEGQQPIVRKVVEHGLFVKHCKVEVYLLELKLCENSDPTNVLSCHFSKADTIATIEKEMRKLFNIPAERETRLWNKYMSNTYEQLSKLDNTVQDAGLYQGQVLVIEPQNEDGTWPRQT
notes: USP4, human, N-terminal tandem DUSP–Ubl domain, residues 8-228
For B2, the “Ub–Rhod catalytic rate of USP4 CD (50 nM, 5 μM substrate) with DUSP–Ubl added in trans at different concentrations up to 150 μM” value in test [4] is approximately 9 fold. The Kd in test [5] was approximately 44 µM; in test [6], approximately 100 µM.

B3: USP4 DUSP–Ubl Y136A (domain or fragment, human, UniProt Q13107 8-228, looked up)
chain: RERPDAETQKSELGPLMRTTLQRGAQWYLIDSRWFKQWKKYVGFDSWDMYNVGEHNLFPGPIDNSGLFSDPESQTLKEHLIDELDYVLVPTEAWNKLLNWYGCVEGQQPIVRKVVEHGLFVKHCKVEVALLELKLCENSDPTNVLSCHFSKADTIATIEKEMRKLFNIPAERETRLWNKYMSNTYEQLSKLDNTVQDAGLYQGQVLVIEPQNEDGTWPRQT
notes: USP4, human, DUSP–Ubl domain residues 8-228 with Y136A at the interface of the DUSP and Ubl domains; also called mutant DUSP–Ubl
For the molecule B3, the binding result in test [5] and in test [6] was “binds” each time.

B4: USP4 FL F386G (enzyme, human, UniProt Q13107 8-925, looked up)
chain: RERPDAETQKSELGPLMRTTLQRGAQWYLIDSRWFKQWKKYVGFDSWDMYNVGEHNLFPGPIDNSGLFSDPESQTLKEHLIDELDYVLVPTEAWNKLLNWYGCVEGQQPIVRKVVEHGLFVKHCKVEVYLLELKLCENSDPTNVLSCHFSKADTIATIEKEMRKLFNIPAERETRLWNKYMSNTYEQLSKLDNTVQDAGLYQGQVLVIEPQNEDGTWPRQTLQSKSSTAPSRNFTTSPKSSASPYSSVSASLIANGDSTSTCGMHSSGVSRGGSGFSASYNCQEPPSSHIQPGLCGLGNLGNTCFMNSALQCLSNTAPLTDYFLKDEYEAEINRDNPLGMKGEIAEAYAELIKQMWSGRDAHVAPRMFKTQVGRFAPQGSGYQQQDSQELLAFLLDGLHEDLNRVKKKPYLELKDANGRPDAVVAKEAWENHRLRNDSVIVDTFHGLFKSTLVCPECAKVSVTFDPFCYLTLPLPLKKDRVMEVFLVPADPHCRPTQYRVTVPLMGAVSDLCEALSRLSGIAAENMVVADVYNHRFHKIFQMDEGLNHIMPRDDIFVYEVCSTSVDGSECVTLPVYFRERKSRPSSTSSASALYGQPLLLSVPKHKLTLESLYQAVCDRISRYVKQPLPDEFGSSPLEPGACNGSRNSCEGEDEEEMEHQEEGKEQLSETEGSGEDEPGNDPSETTQKKIKGQPCPKRLFTFSLVNSYGTADINSLAADGKLLKLNSRSTLAMDWDSETRRLYYDEQESEAYEKHVSMLQPQKKKKTTVALRDCIELFTTMETLGEHDPWYCPNCKKHQQATKKFDLWSLPKILVVHLKRFSYNRYWRDKLDTVVEFPIRGLNMSEFVCNLSARPYVYDLIAVSNHYGAMGVGHYTAYAKNKLNGKWYYFDDSNVSLASEDQIVTKAAYVLFYQRRDD
notes: USP4, human, residues 8-925, switching loop mutant F386G; made with the QuickChange mutagenesis kit
Consider B4, for which, in test [2], the “k_fast (dissociation, fast component)” value worked out at 0.26 ± 0.01 s⁻¹ and the “k_slow (dissociation, slow component)” value was 0.024 ± 0.002 s⁻¹.

As usually defined, the kon is the second-order rate constant of association. A lower kon goes with slower complex formation.
